Earlier results on 1 substance are cited in patent publication US20210079079A1, “SYSTEMS AND METHODS FOR LOCAL MODULATION OF WNT SIGNALING” (Ortheus, Inc., priority 2018, published 2021).

The conditions of the data set: in vivo; cited from earlier work.

For the substance “DKK1: a secreted protein that inhibits canonical Wnt signaling”, the elimination half-life result was “less than 30 minutes”.
